Article PMC9232105, “S-Adenosylmethionine–responsive cystathionine β-synthase modulates sulfur metabolism and redox balance in Mycobacterium tuberculosis” (Science Advances, 2022)
Substitutions are numbered along the chain they refer to. Names and notes keep the numbering of the source.

B1: MtbCbs L454A (enzyme)
chain: MRIAQHISELIGGTPLVRLNSVVPDGAGTVAAKVEYLNPGGSSKDRIAVKMIEAAEASGQLKPGGTIVEPTSGNTGVGLALVAQRRGYKCVFVCPDKVSEDKRNVLIAYGAEVVVCPTAVPPHDPASYYSVSDRLVRDIDGAWKPDQYANPEGPASHYVTTGPEIWADTEGKVTHFVAGIGTGGTITGAGRYLKEVSGGRVRIVGADPEGSVYSGGAGRPYLVEGVGEDFWPAAYDPSVPDEIIAVSDSDSFDMTRRLAREEAMLVGGSCGMAVVAALKVAEEAGPDALIVVLLPDGGRGYMSKIFNDAWMSSYGFLRSRLDGSTEQSTVGDVLRRKSGALPALVHTHPSETVRDAIGILREYGVSQMPVVGAEPPVMAGEVAGSVSERELLSAVFEGRAKLADAVSAHMSPPLRMIGAGELVSAAGKALRDWDALMVVEEGKPVGVITRYDLAGFLSEGAGRR
B2: MtbCbs S393R (enzyme)
chain: B1 chain with S393R, A454L
B3: MtbCbs mutant lacking the Bateman module (MtbCbs 1-317) (domain or fragment)
chain: MRIAQHISELIGGTPLVRLNSVVPDGAGTVAAKVEYLNPGGSSKDRIAVKMIEAAEASGQLKPGGTIVEPTSGNTGVGLALVAQRRGYKCVFVCPDKVSEDKRNVLIAYGAEVVVCPTAVPPHDPASYYSVSDRLVRDIDGAWKPDQYANPEGPASHYVTTGPEIWADTEGKVTHFVAGIGTGGTITGAGRYLKEVSGGRVRIVGADPEGSVYSGGAGRPYLVEGVGEDFWPAAYDPSVPDEIIAVSDSDSFDMTRRLAREEAMLVGGSCGMAVVAALKVAEEAGPDALIVVLLPDGGRGYMSKIFNDAWMSSYGFL
B4: MtbCbs E388A (enzyme)
chain: B1 chain with E388A, A454L
B5: MtbCbs R450A (enzyme)
chain: B1 chain with R450A, A454L
B6: MtbCbs I357A (enzyme)
chain: B1 chain with I357A, A454L
notes: also called I357A mutant
B7: MtbCbs E390A (enzyme)
chain: B1 chain with E390A, A454L
B8: MtbCbs S411A (enzyme)
chain: B1 chain with S411A, A454L
B9: MtbCbs D432N (enzyme)
chain: B1 chain with D432N, A454L
B10: MtbCbs W433F (enzyme)
chain: B1 chain with W433F, A454L

Biological target: the molecule itself
Test: SEC

Protein	binding result	stoichiometry N
B1	binds	–
B2	binds	–
B3	–	2
B4	binds	–
B5	binds	–
B6	binds	–

Biological target: the molecule itself
Test: not given

Protein	stoichiometry N
B7	4
B8	4
B9	4
B10	4
